# B1: NFKB: benchmark DTS with NF-κB binding sites in pentameric repeat (SEQ ID NO: 140) (nucleic acid)
# DNA: GGGACTTTCCAGATTACTACTGATAGGGACTTTCCAGATTACTACTGATAGGGACTTTCCAGATTACTACTGATAGGGACTTTCCAGATTACTACTGATAGGGACTTTCC
# modifications: DNA nuclear targeting sequence within DNA cargo construct, further chemistry not given here
# Legend:
# mouse liver = experiment: Pooled DTS pDNA-LNP i.v. in mice; mRNA abundance in liver by RNA-seq; type: in vivo; conditions: 1 d post-dose, pDNA-LNP 0.66 mg/kg i.v.
# Procedure: LNP formulation. LNPs encapsulating nucleic acid payloads were prepared by mixing an organic solution of lipids with an aqueous solution of nucleic acid (e.g., DNA only, mRNA only, or DNA/mRNA mixtures) as described in Prud′homme et al. (J Pharm Sci 2018). Briefly, the lipidic excipients mixture (ionizable lipid, helper lipid, cholesterol, PEG-lipid and potentially other targeting moieties) is dissolved in an organic solvent. An aqueous solution of the nucleic acid is prepared in a low pH buffer of range pH 3.0-4.0. The lipid mixture is then mixed with the aqueous nucleic acid solution at a flow ratio of 1:3 (V/V) using a commercially available mixer device. […] Particle size is determined by dynamic light scattering (Horiba nanoPartica SZ-100). Encapsulation efficiency is calculated by using Quant-it RiboGreen assay kit.
# (§1) Quantification of mRNA abundance from pooled DTS screens. […] The PCR amplified cDNA was then library prepped (NEBNext library prep for Illumina) and sequenced on an Illumina Miseq (2×150 bp reads). Counts for each UMI were translated into the corresponding DTS using the UMI/Barcode registry and changes in abundance of each DTS were statistically analyzed using a custom R script. The log 2 fold change is calculated by comparing the RNA level in the pool vs. its expected abundance, which is derived from the abundance in the corresponding input DNA pool. […]
# [1] = tested on: growth-arrested HepG2 cells; experiment: Pooled DTS screen in growth-arrested HepG2 cells; mRNA abundance by RNA-seq of UMIs; type: cell-based
# Source text: Library cloning. Pooled DTS libraries were designed as described above. To ensure the highest quality library production of oligos for cloning, oligo lengths were standardized to 300 bp. To accommodate this standardized length the core sequence of each DTS was embedded center-justified in a neutral fragment of random DNA sequence. The flanks of each oligo contained unique golden gate restriction enzyme digestion sites (Bsal) for cloning of double stranded DNA into screening vectors. […] The proper UMI/DTS barcode correlation (termed here the “library registry”) was determined via excision of the hTTR/eGFP fragments, re-ligation of the vector, PCR amplification of the corresponding proximal DTS and UMI regions, and sequencing on an Illumina Miseq (2×150 bp reads). […]
# as §1
molecule,measurement,setting,value
B1,mRNA abundance in mouse liver compared to Spacer negative control,mouse liver,largest and most statistically significant increase
same,mRNA abundance in pooled screen relative to Spacer negative control,[1],robust increases

# Source: patent publication US20260234655A1, “Nuclear Targeted DNA Delivery and Compositions for Use in Practicing the Same” (Seawolf Therapeutics, Inc., priority 2022, published 2026)
